{"source": "paper PMC10706726", "biological_target": "cLUC-LcMYB111 (litchi)", "data": [{"substance": "LcHY5-nLUC (natural protein)", "values": [{"measurement": "dual-luciferase reporter (LUC/REN): activation of proLcFLS-A when LcMYB111 was co-infiltrated with LcHY5 (untagged effectors)", "result": 18.8, "unit": "fold"}, {"measurement": "dual-luciferase reporter (LUC/REN): activation of proLcFLS-B when LcMYB111 was co-infiltrated with LcHY5 (untagged effectors)", "result": 5.78, "unit": "fold"}]}]}
